A short description of the data set: amyloid nucleation score (Sup35N fusion, yeast selection) (log enrichment); library NNK3; higher = more nucleation; inactive = no reads after selection. The essentials: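 Nucleation score: DiMSum log enrichment of output over input reads, centred on the mode score of non-aggregating sequences. Only sequences with at least 100 input reads were kept. Reads came from Illumina sequencing of plasmid inserts before and after 7 days of growth at 30°C without adenine and uracil, in psi-negative yeast expressing Sup35N fused to peptides of 20 random codons after 24 hours of induction with 100 μM copper sulfate.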

± gives the uncertainty stated by the source.

For the substance KRYCSLMML, the amyloid nucleation score entry was “inactive”.

Turning to GWVYWVSMRVIPNRIVINDP, the amyloid nucleation score entry is “inactive”.

With MCFTLIKLLIQWKREDQIDE, the amyloid nucleation score was 1.07 ± 0.096.

For NRKGIR, the amyloid nucleation score is -0.009 ± 0.58.

In turn, WLLTNNLDCQCCMCLDWMWC registered an amyloid nucleation score of 2.81 ± 0.057.

As to FHTSKLHRFPHLK, the amyloid nucleation score entry was “inactive”.

VSGVECSCD gave an amyloid nucleation score of 0.762 ± 0.15.

Consider RGRMLDHGSS, for which the amyloid nucleation score entry is “inactive”.

Take WDMENFLD: the amyloid nucleation score result is “inactive”.

Take LVAWCDIPNCCANVYCNSVD: the amyloid nucleation score was 1.85 ± 0.077.

For the substance WAEREDAAVSLGLWYGDTCF, the amyloid nucleation score entry is “inactive”.

As for QFKVLYPGREGDAKCHVGAR, the amyloid nucleation score result was “inactive”.

For TTDFSNMLDLSGVKVSGVLP, the amyloid nucleation score entry is “inactive”.

Regarding CGRRYGTGAPRCL, the amyloid nucleation score result is “inactive”.

Take LNVGCLWRGDGGNRRAQWDV: the amyloid nucleation score entry was “inactive”.

For the substance ETGYKCAKGFYRCTGRGMVW, the amyloid nucleation score result is “inactive”.

Turning to GMLPTGRYDRAYSFWGNWRR, the amyloid nucleation score came out at 1.08 ± 0.18.

Consider KSGTGSNWFWKGGLSGTKKH, for which the amyloid nucleation score entry was “inactive”.

As for FWSGIWSNTFRFYGAVIWPG, the amyloid nucleation score entry is “inactive”.

In the case of SVYPYESYLVW, the amyloid nucleation score entry is “inactive”.

Turning to GFIGK, the amyloid nucleation score result is “inactive”.

On to SGWYWICLKHRGQVDHPLST, for which the amyloid nucleation score entry was “inactive”.

In turn, FIIAWWCNVSVDKTSERHYV yielded an amyloid nucleation score of 1.55 ± 0.079.

As for KDYLLSSYCEECHDHSSSEL, the amyloid nucleation score entry was “inactive”.

Turning to GTLTVYNRDFRDIGDFKIYA, the amyloid nucleation score result is “inactive”.

On to DRRYEGGRKVQSYTVARPWS, for which the amyloid nucleation score result is “inactive”.

Turning to KNGFRNVRKQRGAQKE, the amyloid nucleation score result was “inactive”.

For QHLLYSPIEPIVPSVWDIVD, the amyloid nucleation score entry was “inactive”.

Turning to WVVWEM, the amyloid nucleation score result is “inactive”.

For FDNKQGSFLKVLTFNFARVA, the amyloid nucleation score entry is “inactive”.

On to SLGNITVPAT, for which the amyloid nucleation score entry is “inactive”.

As to YCIRVVVWYNRHYGYSLS, the amyloid nucleation score entry is “inactive”.

Regarding MTPTMDENSFLDSSISQMLW, the amyloid nucleation score result was “inactive”.

For HRSRISTWMWG, the amyloid nucleation score result is “inactive”.

On to LFSWRKYGVNHQLLGVEIQS, for which the amyloid nucleation score entry is “inactive”.

Regarding HFLRRTDFYTANWA, the amyloid nucleation score result was “inactive”.

As for GYNVKGNP, the amyloid nucleation score entry was “inactive”.

As to SDERCLFGVQRYMHVFLRPI, the amyloid nucleation score entry is “inactive”.

Consider FFSISFS, for which the amyloid nucleation score result is “inactive”.

Regarding VYVGVLVFITWYLSSLYNWA, the amyloid nucleation score entry was “inactive”.

With KDLQR, the amyloid nucleation score entry is “inactive”.

The substance IVHNYFSFCHYNRGRVGLFI yielded an amyloid nucleation score of 2.64 ± 0.074.

Regarding GERWVQKIQ, the amyloid nucleation score entry is “inactive”.

As for KYNFNYPEITLAPTYYMSIT, the amyloid nucleation score result was “inactive”.

As to SNAFVYFRFLTFDSRFCCYY, the amyloid nucleation score came to 1.56 ± 0.074.

With KLSDDRKTRCNYYFMGLVVV, the amyloid nucleation score entry was “inactive”.

Regarding HVYMGSFVPR, the amyloid nucleation score entry is “inactive”.

VGVFSIMV: the amyloid nucleation score result was “inactive”.

In the case of DSNGYKEGVDQNSGAKNTNK, the amyloid nucleation score result is “inactive”.

With QNVRLTMLLFRNKVYS, the amyloid nucleation score result is “inactive”.

Take VGMISCKTILEFGGMSSFVM: the amyloid nucleation score result is “inactive”.

On to RLTWESTMYVKIVGMSYAFG, for which the amyloid nucleation score is -0.241 ± 0.36.

Turning to RWKFYILVIYGVSASTFAQG, the amyloid nucleation score entry was “inactive”.

In turn, HGIGFDDVASG yielded an amyloid nucleation score of -0.045 ± 0.88.

Turning to SLRSFECFSSCTGLWCMLWG, the amyloid nucleation score entry is “inactive”.

Consider AGESEISVRMEKSHSGVASR, for which the amyloid nucleation score is -0.436 ± 1.7.

Regarding ANKPWVNDIFPT, the amyloid nucleation score entry was “inactive”.

NVYFGRYFI: the amyloid nucleation score entry was “inactive”.

On to SLGVNLSISVGKYEYSLSLK, for which the amyloid nucleation score result was “inactive”.

For the substance GLVWCFCLCSITSYIMVILF, the amyloid nucleation score result was “inactive”.

On to SMVNWFMLRTAVVVQSRVAV, for which the amyloid nucleation score entry was “inactive”.

Take PKIVYLLAFIVKIELVILTD: the amyloid nucleation score entry is “inactive”.

In the case of GCFNGNSYRSLPFWFMSTCL, the amyloid nucleation score entry is “inactive”.

With RPAIRSFFVMVSVKLR, the amyloid nucleation score result was “inactive”.

TATWSFNVT: the amyloid nucleation score result was “inactive”.

As to ICLDKITDAIYMDYNRAFSC, the amyloid nucleation score result is “inactive”.

In turn, CMLSMFSCCCFDSPRRYCH displayed an amyloid nucleation score of 2.36 ± 0.051.

For the substance DAGELNILI, the amyloid nucleation score entry was “inactive”.

Regarding CRNESLACSKMSPSQRRSYT, the amyloid nucleation score result was “inactive”.

In the case of KLLRQNSY, the amyloid nucleation score result was “inactive”.

WEYNASLLVLTHLGWAFHLC: the amyloid nucleation score result is “inactive”.

As to CVGVCKNLNRWFH, the amyloid nucleation score entry is “inactive”.

Substance DCGKRSTTINFAWNGAVQPD gave an amyloid nucleation score of 1.04 ± 0.18.

Take SDVYWISLFVATSICCRSGA: the amyloid nucleation score result was “inactive”.

In the case of RIRGTCMGL, the amyloid nucleation score entry is “inactive”.

As to LDSGISNHPNFIFTHTEFIN, the amyloid nucleation score result was “inactive”.

Regarding TVGVKKYAMGRRYIV, the amyloid nucleation score result is “inactive”.

As for FFEWRTGLFVLWLSEVTSLM, the amyloid nucleation score entry is “inactive”.

In turn, QTGCIPNER registered an amyloid nucleation score of 1.05 ± 0.23.

Regarding TNYNHCKCEIGLGHILARFT, the amyloid nucleation score result was “inactive”.

For the substance TGGWTNNEQHFENSGMEVGT, the amyloid nucleation score result is “inactive”.

Regarding FEYLSMYELGISVE, the amyloid nucleation score result is “inactive”.

For the substance CFKSIITMNFYINWYFVSSP, the amyloid nucleation score result is “inactive”.

Turning to FISSLSRSFL, the amyloid nucleation score entry is “inactive”.

Turning to TAESTDCG, the amyloid nucleation score result is “inactive”.

Take RIVSVFLDNEQISRNGAVSS: the amyloid nucleation score is -0.425 ± 0.59.

For the substance ADMCWTNRSETYDGELTVGV, the amyloid nucleation score result was “inactive”.

Consider PGCAAWRRSYVS, for which the amyloid nucleation score entry is “inactive”.

Consider RGYRAK, for which the amyloid nucleation score came out at 1.34 ± 0.097.

Consider CRVEVAICHRPLCSKVTLDG, for which the amyloid nucleation score result is “inactive”.

As for KVNGYSLMLLDPVGGLTNT, the amyloid nucleation score result is “inactive”.

For the substance GYKFWCSVFLVWLILHVRQS, the amyloid nucleation score result is “inactive”.

Consider FLSFTSRNLTYFCDCRFSLI, for which the amyloid nucleation score entry is “inactive”.

EVLLFVFKEGTHLVGLW: the amyloid nucleation score entry was “inactive”.

In the case of KTIFFMKGLVMSDDICSDRR, the amyloid nucleation score result is “inactive”.

Consider RAHICSYSFAIYVFVCN, for which the amyloid nucleation score was 0.661 ± 0.13.

YGSIRLNMYWFVCVCTISWI showed an amyloid nucleation score of 0.661 ± 0.13.

For the substance VHSGQLVTMGMYKLLLSSLC, the amyloid nucleation score entry is “inactive”.

(Values after the supplement of paper PMC12042874.)
